This note sets out measurements from patent publication US20210340276A1 (Astellas, published 2021).

Common to all, as to test: ELISA, MUC1 peptide immobilized on 384-well plate, HRP anti-human Igκ detection, luminescence
For orientation: An ELISA detects its analyte on a solid surface through an enzyme-linked reagent.

Assay [1] has as its target T1, Human cancer-specific MUC1 peptide (PTL 1) (human).
T1 construct: Immobilized at 0.5 µmol/L per well on a 384-well ELISA plate
The procedure: (§1) Human cancer-specific MUC1 peptide (PTL 1) was immobilized at 0.5 μmol/L per well onto a 384-well ELISA plate. The resultant was reacted with each anti-human MUC1 antibody Fab fragment conjugate described above (sample No. 5, 6, 7, or 3) and then reacted with a horseradish peroxidase-labeled goat anti-human Igκ antibody (Southern Biotechnology Associates, Inc.) as a secondary antibody. ECL Prime Western Blotting Detection Reagent (GE Healthcare Japan Corp.) was added thereto for luminescence, and the degree of the luminescence was examined.

Assay [2] addresses T1, Human cancer-specific MUC1 peptide (PTL …). The protocol: as §1
(§2) Likewise, binding activity evaluation was also conducted as to the anti-human MUC1 antibody Fab fragment conjugates given below.
This is another data set of the same source.

The target is the same in assay [3]. The protocol:
as §1, §2
The source holds these as a separate data set.

Like-named read-outs stand apart in the source and are kept apart here.

B1: P10-2 Fab (Fab, V domains shown)
VH: QVQLVQSGAEVKKPGASVKVSCKASGYTFTNYGLSWVRQAPGQGLEWMGENHPGSGIIYHNEKFRGRVTLTADRSTSTAYMELSSLRSEDTAVYYCARSSGTRGFDYWGQGTLVTVSS
VL: DVVMTQTPLSLSVTPGQPASISCRSSQSIVHSNGNTYLEWYLQKPGQSPQLLIYRVSNRFSGVPDRFSGSGSGTDFTLKISRVEAEDVGVYYCFQGSHGPWTFGQGTKLEIKR
modifications: heavy chain N-terminal glutamine modified into pyroglutamic acid in a great majority of purified antibodies (Example 2)
notes: expressed in Expi293F cells, purified with KappaSelect; also called anti-human MUC1 antibody Fab fragment P10-2
Turning to B1, the EC50 in assay [1] came to 0.23 nM; in assay [2], 0.17 nM; in assay [3], 0.16 nM.

In general, EC50 refers to the concentration at which the effect is half-maximal.
